The values that follow come from patent US20240382610A1 (TALLAC THERAPEUTICS, published 2024).

For assay [1], the target named is T1, Human nectin-4 ECD-6His (TNT-175) (human, UniProt Q96NY8 32-349).
T1 construct: the entry holds the extracellular domain with the C-terminal 6His tag
T1 sequence: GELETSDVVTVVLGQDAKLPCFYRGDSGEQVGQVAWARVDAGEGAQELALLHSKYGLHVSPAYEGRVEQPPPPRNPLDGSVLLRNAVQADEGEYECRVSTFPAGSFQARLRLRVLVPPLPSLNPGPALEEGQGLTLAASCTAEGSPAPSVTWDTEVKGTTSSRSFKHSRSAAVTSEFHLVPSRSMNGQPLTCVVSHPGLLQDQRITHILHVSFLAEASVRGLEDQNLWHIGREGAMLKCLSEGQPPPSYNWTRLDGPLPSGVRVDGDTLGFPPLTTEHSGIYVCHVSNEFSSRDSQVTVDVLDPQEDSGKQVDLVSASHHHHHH
Description: competition ELISA; nectin-4 ECD premixed with TNT207, captured by the coat antibody; % of signal without premix antibody. How it is done: (§1) Competition experiments of nectin-4 antibodies. ELISA plates were coated overnight at 4° C. with goat anti-mouse IgG at […] in PBS. […] As positive control, nectin-4 was diluted at same concentrations without a premix antibody. Two wells per plate were allocated for diluent only as negative/background control. Plates were washed as previously, 50 μL/well of premix was added to each plate and incubated for one hour. Plates were washed then incubated at room temperature for one hour with Rabbit anti 6× HIS HRP diluted 1:4,000 in diluent. Plates were washed once more and incubated at room temperature for 20 minutes with 50 μL/well of ABTS substrate. […] Binding was measured as an Optical Density (O.D.) value normalized to background and calculated as a percentage of positive control at the lowest nectin-4 dilution for greatest resolution.
In general terms: ELISA stands for enzyme-linked immunosorbent assay.

Assay [2] has as its target T1, Human nectin-4 ECD-6His (TNT-175). Briefly: competition ELISA; nectin-4 ECD premixed with TNT206, captured by the coat antibody; % of signal without premix antibody. How it is done: as §1
For assay [3] the target is unchanged. Description: competition ELISA; nectin-4 ECD premixed with TNT203, captured by the coat antibody; % of signal without premix antibody. How it is done:
as §1

In the next assay the target is T2, human nectin-4 on cells (human, UniProt Q96NY8 32-510).
T2 construct: whole, on cells; also called PVRL4
T2 sequence (looked up): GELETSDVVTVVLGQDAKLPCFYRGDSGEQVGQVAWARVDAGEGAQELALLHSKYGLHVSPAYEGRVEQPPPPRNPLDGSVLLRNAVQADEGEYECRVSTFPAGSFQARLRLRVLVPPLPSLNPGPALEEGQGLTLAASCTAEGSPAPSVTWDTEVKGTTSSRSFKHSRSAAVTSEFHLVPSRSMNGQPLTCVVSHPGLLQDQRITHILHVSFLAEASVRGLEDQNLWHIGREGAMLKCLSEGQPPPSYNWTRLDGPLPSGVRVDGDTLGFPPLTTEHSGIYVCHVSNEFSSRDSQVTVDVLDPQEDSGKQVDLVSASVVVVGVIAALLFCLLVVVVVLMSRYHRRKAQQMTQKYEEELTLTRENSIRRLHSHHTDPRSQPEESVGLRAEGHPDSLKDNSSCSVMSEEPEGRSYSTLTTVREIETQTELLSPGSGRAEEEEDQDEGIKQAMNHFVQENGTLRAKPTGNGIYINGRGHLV
Briefly: flow cytometry MFI, MNK74 (nectin-4 positive) over AGS (negative). Here is the method:
Cell binding of nectin-4 antibodies. Cell binding of the nectin-4 antibodies was also assessed. MNK74 (nectin-4 positive) and AGS (nectin-4 negative) cells were obtained from ATCC and cultured according to their protocols. Cells were detached with TrypLE (Gibco) and washed by centrifugation for five minutes at 400×g with FACS buffer (PBS+2% FBS). Cells were resuspended in FACS buffer, plated in 96-well format (0.25 e6/well) then pelleted by centrifugation for five minutes at 400×g. Cells were stained at 4° C. in Fixable Viability Dye eFluor 506 (eBioscience) diluted 1:4,000 in PBS. […] Cells were centrifuged, washed once in FACS buffer and stained at 4° C. with Goat F(ab′)₂ anti-Mouse IgG APC (Southern Biotech) diluted 1:400 in FACS buffer for 30 minutes or appropriate anti-human IgG. Cells were centrifuged, washed twice and fixed in 0.5% paraformaldehyde. Cells were analyzed on Attune NxT Flow Cytometer (Thermo Fisher), with subsequent data analysis by Flowjo 10.7 (BD). Dead cells were excluded by gating on the eFluor 506-negative population. […] Binding was assessed by median fluorescent intensity.

For assay [4], the target named is T1, Human nectin-4 ECD-6His (TNT-175). Briefly: competition ELISA; nectin-4 ECD premixed with TNT204, captured by the coat antibody; % of signal without premix antibody. Here is the method:
as §1

Assay [5] shares this target. Description: competition ELISA; nectin-4 ECD premixed with TNT211, captured by the coat antibody; % of signal without premix antibody. Here is the method:
as §1

Assay [6] shares this target. Briefly: competition ELISA; nectin-4 ECD premixed with TNT212, captured by the coat antibody; % of signal without premix antibody. Here is the method: as §1
For assay [7] the target is unchanged. Description: competition ELISA; nectin-4 ECD premixed with TNT208, captured by the coat antibody; % of signal without premix antibody. How it is done: as §1
The target is the same in assay [8]. Description: competition ELISA; nectin-4 ECD premixed with TNT201, captured by the coat antibody; % of signal without premix antibody. How it is done: as §1
Assay [9] has the same target. Briefly: SPR ProteOn, mAb on protein A. Here is the method:
Initial testing of binding of nectin-4 antibodies to nectin-4. […] Biotinylated protein A (15 μg/mL) was immobilized to the surface of an NLC chip. 30 nM of purified mAb supernatant was diluted in PBS-T and captured over the protein A surface. Serial dilutions of human nectin-4 were injected over the mAb-coated chips, and binding kinetics were determined. Chips were regenerated using 4:1 v/v of IgG elution butter/4M NaCl.

Assay [10] shares this target. Briefly: competition ELISA; nectin-4 ECD premixed with TNT209, captured by the coat antibody; % of signal without premix antibody. Here is the method:
as §1

For assay [11] the target is unchanged. Description: competition ELISA; nectin-4 ECD premixed with TNT210, captured by the coat antibody; % of signal without premix antibody. How it is done:
as §1

The target is the same in assay [12]. Description: competition ELISA; nectin-4 ECD premixed with TNT202, captured by the coat antibody; % of signal without premix antibody. Here is the method:
as §1

The target is the same in assay [13]. Description: competition ELISA; nectin-4 ECD premixed with TNT205, captured by the coat antibody; % of signal without premix antibody. How it is done:
as §1

B1: TNT-191 (antibody, mouse IgG2a, kappa)
heavy: EVQLLESGGGVVQPGRSLRLSCAASGFTFSSYGMHWVRQAPGKGLEWVAVISYDGSNKYYADSVKGRFTISRDNSKNTLYLQMNSLRAEDTAVYYCAKSSYYDYVWGSYRYTDAFDIWGQGTMVTVSSAKTTAPSVYPLAPVCGDTTGSSVTLGCLVKGYFPEPVTLTWNSGSLSSGVHTFPAVLQSDLYTLSSSVTVTSSTWPSQSITCNVAHPASSTKVDKKIEPRGPTIKPCPPCKCPAPNLLGGPSVFIFPPKIKDVLMISLSPIVTCVVVDVSEDDPDVQISWFVNNVEVHTAQTQTHREDYNSTLRVVSALPIQHQDWMSGKEFKCKVNNKDLPAPIERTISKPKGSVRAPQVYVLPPPEEEMTKKQVTLTCMVTDFMPEDIYVEWTNNGKTELNYKNTEPVLDSDGSYFMYSKLRVEKKNWVERNSYSCSVVHEGLHNHHTTKSFSRTPGRPQGFGPP
light: EIVLTQSPATLSLSPGERATLSCRASQSVSSSYLAWYQQKPGQAPRLLIYGASSRATGIPDRFSGSGSGTDFTLTISRLEPEDFAVYYCQQYNNWWTFGQGTKVDIKRADAAPTVSIFPPSSEQLTSGGASVVCFLNNFYPKDINVKWKIDGSERQNGVLNSWTDQDSKDSTYSMSSTLTLTKDEYERHNSYTCEATHKTSTSPIVKSFNRNEC
On to B1, for which the “% of Positive” value in [1] is 2.5%; in assay [2] it was 11.4%; in assay [3], 32.7%; in assay [4] it was 4.5%; in [5], 24.6%; in assay [6] it was 3%. Moreover, the “% of Positive” value was found to be 5.3% in assay [7]; 1.5% in [8]; 30.4% in [10]; 2.4% in assay [11]; 4.8% in assay [12]; 54.8% in assay [13]. For the same molecule, the “Fold-change of binding to MNK74 compared to control AGS” value with human nectin-4 on cells was 5 fold. Further, the dissociation constant (Kd) in assay [9] worked out at 4.3 nM. The same molecule came in with a koff in assay [9] of 0.000983 s⁻¹. The kon in [9] is 229000 M⁻¹ s⁻¹.

B2: TNT-190 (antibody, mouse IgG2a, kappa)
heavy: EVQLVQSGGGLVKPGGSLRLSCAASGFTFSDYYMSWVRQAPGKGLEWVSAISGSGGSTYYADSVKGRFTISRDNSKNTLYLQMNSLRAEDTAVYYCARDEGYYYMDVWGKGTTVTVSSAKTTAPSVYPLAPVCGDTTGSSVTLGCLVKGYFPEPVTLTWNSGSLSSGVHTFPAVLQSDLYTLSSSVTVTSSTWPSQSITCNVAHPASSTKVDKKIEPRGPTIKPCPPCKCPAPNLLGGPSVFIFPPKIKDVLMISLSPIVTCVVVDVSEDDPDVQISWFVNNVEVHTAQTQTHREDYNSTLRVVSALPIQHQDWMSGKEFKCKVNNKDLPAPIERTISKPKGSVRAPQVYVLPPPEEEMTKKQVTLTCMVTDFMPEDIYVEWTNNGKTELNYKNTEPVLDSDGSYFMYSKLRVEKKNWVERNSYSCSVVHEGLHNHHTTKSFSRTPGRPQGFGPP
light: EIVLTQSPATLSLSPGERATLSCRASQSVSSYLAWYQQKPGQAPRLLIYDASNRATGIPARFSGSGSGTDFTLTISSLQAEDFATYYCQQSYSTRFGGGTKVEIKRADAAPTVSIFPPSSEQLTSGGASVVCFLNNFYPKDINVKWKIDGSERQNGVLNSWTDQDSKDSTYSMSSTLTLTKDEYERHNSYTCEATHKTSTSPIVKSFNRNEC
Consider B2, for which the “% of Positive” value was 0.3% in assay [1]; 0.5% in assay [2]; 3.5% in assay [3]; 0.7% in assay [4]; 2.4% in assay [5]; 1.5% in assay [6]. Also, the “% of Positive” value in [7] turned out to be 0.3%; in [8], 1.2%; in assay [10], 3.4%; in [11], 0.3%; in assay [12], 0.8%; in assay [13] it was 13.5%. Also, the “Fold-change of binding to MNK74 compared to control AGS” value with human nectin-4 on cells was 5.1 fold. For the same molecule, binding in [9] was put at a Kd of 31.4 nM. The same molecule showed a koff in assay [9] of 0.00831 s⁻¹. In addition, the kon in assay [9] is 265000 M⁻¹ s⁻¹.

Usually Kd stands for the free concentration of one partner at which half of the binding sites on the other are occupied at equilibrium, for simple one-to-one binding. Lower therefore signals higher affinity. As a reminder, the koff is the first-order rate constant of dissociation. Read a high koff as a short-lived complex. One may read the kon as the rate constant with which the complex forms. A higher kon goes with faster complex formation.
